± gives the uncertainty stated by the source.
B1: V(D)J recombination-activating protein 2, residues 415 to 491; numbered along this chain, P55895 (parent)
chain: YWITCCPTCDVDINTWVPFYSTELNKPAMIYCSHGDGHWVHAQCMDLAERTLIHLSAGSNKYYCNEHVEIARALHTP

Variants of: B1
Test: abundance fitness (aPCA) (normalised: wild type 0, dead -1); higher = more abundant; growth selection in yeast, the domain comes from the species named
Details: Homo sapiens
YWITCCPTCDVDINTWVPFYSTELNKPAMIYCSHGDGHWVHAQCMDLAERTLIRLSAGSNKYYCNEHVEIARALHTP [H54R] showed an abundance fitness of -0.056 ± 0.074. YWITCCPTCDVDINTWVPFYSTELNKPAMIYCSHGDGHWVHAQCMDLAERTLINLSAGSNKYYCNEHVEIARALHTP [H54N] gave an abundance fitness of -0.061 ± 0.1. Work on YWITCCPTCDVDINTWVPFYSTELNKPAMIYCSHGDGHWVHAQCMDLAERTLITLSAGSNKYYCNEHVEIARALHTP [H54T] yielded an abundance fitness of -0.12 ± 0.083. Work on YWITCCPTCDVDINTWVPFYSTELNKPAMIYCSHGDGHWVHAQCMDLAERTLIMLSAGSNKYYCNEHVEIARALHTP [H54M] yielded an abundance fitness of -0.087 ± 0.12. YWITCCPTCDVDINTWVPFYSTELNKPAMIYCSHGDGHWVHAQCMDLAERTLISLSAGSNKYYCNEHVEIARALHTP [H54S] gave an abundance fitness of -0.002 ± 0.091. With YWITCCPTCDVDINTWVPFYSTELNKPAMIYCSHGDGHWVHAQCMDLAERTLIQLSAGSNKYYCNEHVEIARALHTP [H54Q] the abundance fitness was -0.277 ± 0.15. Work on YWITCCPTCDVDINTWVPFYSTELNKPAMIYCSHGDGHWVHAQCMDLAERTLIDLSAGSNKYYCNEHVEIARALHTP [H54D] yielded an abundance fitness of 0.042 ± 0.18. With YWITCCPTCDVDINTWVPFYSTELNKPAMIYCSHGDGHWVHAQCMDLAERTLILLSAGSNKYYCNEHVEIARALHTP [H54L] the abundance fitness was 0.016 ± 0.06. Variant YWITCCPTCDVDINTWVPFYSTELNKPAMIYCSHGDGHWVHAQCMDLAERTLIALSAGSNKYYCNEHVEIARALHTP [H54A] has an abundance fitness of 0.004 ± 0.066. Variant YWITCCPTCDVDINTWVPFYSTELNKPAMIYCSHGDGHWVHAQCMDLAERTLIWLSAGSNKYYCNEHVEIARALHTP [H54W] has an abundance fitness of -0.064 ± 0.087. Work on YWITCCPTCDVDINTWVPFYSTELNKPAMIYCSHGDGHWVHAQCMDLAERTLIVLSAGSNKYYCNEHVEIARALHTP [H54V] yielded an abundance fitness of 0.008 ± 0.073. Variant YWITCCPTCDVDINTWVPFYSTELNKPAMIYCSHGDGHWVHAQCMDLAERTLIGLSAGSNKYYCNEHVEIARALHTP [H54G] has an abundance fitness of 0.035 ± 0.054. Work on YWITCCPTCDVDINTWVPFYSTELNKPAMIYCSHGDGHWVHAQCMDLAERTLIELSAGSNKYYCNEHVEIARALHTP [H54E] yielded an abundance fitness of 0.02 ± 0.081. Work on YWITCCPTCDVDINTWVPFYSTELNKPAMIYCSHGDGHWVHAQCMDLAERTLICLSAGSNKYYCNEHVEIARALHTP [H54C] yielded an abundance fitness of 0.001 ± 0.15. YWITCCPTCDVDINTWVPFYSTELNKPAMIYCSHGDGHWVHAQCMDLAERTLIKLSAGSNKYYCNEHVEIARALHTP [H54K] showed an abundance fitness of 0.112 ± 0.13. YWITCCPTCDVDINTWVPFYSTELNKPAMIYCSHGDGHWVHAQCMDLAERTLIYLSAGSNKYYCNEHVEIARALHTP [H54Y] showed an abundance fitness of -0.183 ± 0.24. YWITCCPTCDVDINTWVPFYSTELNKPAMIYCSHGDGHWVHAQCMDLAERWLIHLSAGSNKYYCNEHVEIARALHTP [T51W] showed an abundance fitness of -0.412 ± 0.11. YWITCCPTCDVDINTWVPFYSTELNKPAMIYCSHGDGHWVHAQCMDLAERSLIHLSAGSNKYYCNEHVEIARALHTP [T51S] showed an abundance fitness of -0.039 ± 0.073. Work on YWITCCPTCDVDINTWVPFYSTELNKPAMIYCSHGDGHWVHAQCMDLAERYLIHLSAGSNKYYCNEHVEIARALHTP [T51Y] yielded an abundance fitness of -0.068 ± 0.26. For YWITCCPTCDVDINTWVPFYSTELNKPAMIYCSHGDGHWVHAQCMDLAERRLIHLSAGSNKYYCNEHVEIARALHTP [T51R], the abundance fitness was 0.034 ± 0.054. In the case of YWITCCPTCDVDINTWVPFYSTELNKPAMIYCSHGDGHWVHAQCMDLAERVLIHLSAGSNKYYCNEHVEIARALHTP [T51V], the abundance fitness is reported as -0.043 ± 0.055. YWITCCPTCDVDINTWVPFYSTELNKPAMIYCSHGDGHWVHAQCMDLAERTLIHASAGSNKYYCNEHVEIARALHTP [L55A] showed an abundance fitness of -0.108 ± 0.07. Variant YWITCCPTCDVDINTWVPFYSTELNKPAMIYCSHGDGHWVHAQCMDLAERTLIHTSAGSNKYYCNEHVEIARALHTP [L55T] has an abundance fitness of -0.174 ± 0.069. For YWITCCPTCDVDINTWVPFYSTELNKPAMIYCSHGDGHWVHAQCMDLAERTLIHCSAGSNKYYCNEHVEIARALHTP [L55C], the abundance fitness was 0.04 ± 0.099. YWITCCPTCDVDINTWVPFYSTELNKPAMIYCSHGDGHWVHAQCMDLAERTLIHDSAGSNKYYCNEHVEIARALHTP [L55D] gave an abundance fitness of -0.152 ± 0.12. With YWITCCPTCDVDINTWVPFYSTELNKPAMIYCSHGDGHWVHAQCMDLAERTLIHKSAGSNKYYCNEHVEIARALHTP [L55K] the abundance fitness was -0.019 ± 0.087. With YWITCCPTCDVDINTWVPFYSTELNKPAMIYCSHGDGHWVHAQCMDLAERTLIHMSAGSNKYYCNEHVEIARALHTP [L55M] the abundance fitness was -0.026 ± 0.066. YWITCCPTCDVDINTWVPFYSTELNKPAMIYCSHGDGHWVHAQCMDLAERTLIHNSAGSNKYYCNEHVEIARALHTP [L55N] gave an abundance fitness of -0.062 ± 0.15. Work on YWITCCPTCDVDINTWVPFYSTELNKPAMIYCSHGDGHWVHAQCMDLAERTLIHRSAGSNKYYCNEHVEIARALHTP [L55R] yielded an abundance fitness of -0.111 ± 0.036. In the case of YWITCCPTCDVDINTWVPFYSTELNKPAMIYCSHGDGHWVHAQCMDLAERTLIHFSAGSNKYYCNEHVEIARALHTP [L55F], the abundance fitness is reported as -0.06 ± 0.12. For YWITCCPTCDVDINTWVPFYSTELNKPAMIYCSHGDGHWVHAQCMDLAERTLIHPSAGSNKYYCNEHVEIARALHTP [L55P], the abundance fitness was -0.218 ± 0.078. YWITCCPTCDVDINTWVPFYSTELNKPAMIYCSHGDGHWVHAQCMDLAERTLIHGSAGSNKYYCNEHVEIARALHTP [L55G] gave an abundance fitness of -0.18 ± 0.047. For YWITCCPTCDVDINTWVPFYSTELNKPAMIYCSHGDGHWVHAQCMDLAERTLIHQSAGSNKYYCNEHVEIARALHTP [L55Q], the abundance fitness was 0.027 ± 0.074. Variant YWITCCPTCDVDINTWVPFYSTELNKPAMIYCSHGDGHWVHAQCMDLAERTLIHESAGSNKYYCNEHVEIARALHTP [L55E] has an abundance fitness of -0.051 ± 0.093. Work on YWITCCPTCDVDINTWVPFYSTELNKPAMIYCSHGDGHWVHAQCMDLAERTLIHSSAGSNKYYCNEHVEIARALHTP [L55S] yielded an abundance fitness of -0.011 ± 0.049. With YWITCCPTCDVDINTWVPFYSTELNKPAMIYCSHGDGHWVHAQCMDLAERTLIHHSAGSNKYYCNEHVEIARALHTP [L55H] the abundance fitness was 0.085 ± 0.18.
